{"source": "paper PMC3840220", "target": "bromelain-released influenza hemagglutinin (X31) (influenza virus X31)", "assay": "[…]"}
{"substance": "bromelain-released influenza hemagglutinin (X31) (domain or fragment)", "values": [{"measurement": "stoichiometry N", "value": 3}]}
